# Experimental data reported in patent publication US20240317834A1, “COMPOSITIONS AND METHODS FOR NEUROLOGICAL DISEASES” (CODA BIOTHERAPEUTICS, INC., priority 2020, published 2024).
# Tests used:
# rat DRG neurons = assay: Rheobase shift and evoked action potentials in rat DRG neurons (current clamp); assay type: cell-based; details: for Rheobase Shift; Rat DRG Neurons, Baseline: no ligand
# In short: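 Rat DRG neurons expressing engineered receptors, whole-cell current clamp at RT. ECS at pH 7.3; K-gluconate internal at pH 7.2. 500 ms steps from −200 to 700 pA with and without ligand. Rheobase taken as the smallest depolarising step that fires an action potential; input resistance from negative steps.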
# Lenti-X 293T cells = assay: YFP fluorescence quenching anion reporter plate reader assay of engineered receptors stimulated with acetylcholine or a non-native ligand; assay type: cell-based; details: for percent quench of YFP fluorescence, 30 nM TC-6683: TC-6683 30 nM; for percent quench of YFP fluorescence, 300 nM TC-6683: TC-6683 300 nM; for percent quench of YFP fluorescence, 3 uM TC-6683: TC-6683 3 uM; for percent quench of YFP fluorescence, 30 uM TC-6683: TC-6683 30 uM; for percent quench of YFP fluorescence, 100 uM TC-6683: TC-6683 100 uM; for percent quench of YFP fluorescence, 100 uM ach: acetylcholine 100 uM; for percent quench of YFP fluorescence, 300 uM ach: acetylcholine 300 uM; for percent quench of YFP fluorescence, 500 uM ach: acetylcholine 500 uM; for percent quench of YFP fluorescence, 1 mM ach: acetylcholine 1 mM; for percent quench of YFP fluorescence, 3 mM ach: acetylcholine 3 mM; for percent quench of YFP fluorescence, 10 mM ach: acetylcholine 10 mM
# In short: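 YFP quench was followed for about 1 min 43 s after ligand delivered in iodide-based ECS, pH 7.2. Values are end-of-read fluorescence (last 10 s) divided by the pre-ligand baseline (15 s). Cells were LX293T, transfected with receptor DNA a day before the assay.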
molecule,measurement,setting,value
"CODA1054: engineered chimeric LGIC receptor, R101M, L131F in SEQ ID NO: 33 (protein, synthetic sequence of chimeric LGIC) MRCSPGGVWLALAASLLHVSLQGEFQRKLYKELVKNYNPLERPVANDSQPLTVYFSLSLLQIMDVDEKNQVLTTNIWLQMSWTDHYLQWNVSEYPGVKTVMFPDGQIWKPDILLYNSADERFDATFHTNVFVNSSGHCQYLPPGIFKSSCPMDLKNFPMDVQTCKLKFGSWSYGGWSLDLQMQEADISGYIPNGEWDLVGIPGKRSERFYECCKEPYPDVTFTVTMRRRMGYYLIQMYIPSLLIVILSWISFWINMDAAPARVGLGITTVLTMTTQSSGSRASLPKVSYVKAIDIWMAVCLLFVFSALLEYAAVNFVSRQHKELLRFRRKRRHHKSPMLNLFQEDEAGEGRFNFSAYGMGPACLQAKDGISVKGANNSNTTNPPPAPSKSPEEMRKLFIQRAKKIDKISRIGFPMAFLIFNMFYWIIYKIVRREDVHNQ","Rheobase Shift; Rat DRG Neurons, +TC-5619 @ EC90",rat DRG neurons,673 ± 27 pA
same,"Rheobase Shift; Rat DRG Neurons, Baseline",rat DRG neurons,105 ± 13 pA
same,YFP fluorescence quenching using CNL001,"Lenti-X 293T cells; 1 nM CNL001, first column",21.932%
same,YFP fluorescence quenching using CNL001,"Lenti-X 293T cells; 1 nM CNL001, second column",39.689%
same,YFP fluorescence quenching using TC-5619/Bradanicline,Lenti-X 293T cells; 1 nM brd,6.609%
same,YFP fluorescence quenching using TC-5619/Bradanicline,Lenti-X 293T cells; 3 nM brd,−7.635%
same,YFP fluorescence quenching using Varenicline,"Lenti-X 293T cells; 3 nM var, first column",34.923
same,YFP fluorescence quenching using Varenicline,"Lenti-X 293T cells; 3 nM var, second column",28.944
same,YFP fluorescence quenching using CNL001,"Lenti-X 293T cells; 10 nM CNL001, first column",54.192%
same,YFP fluorescence quenching using CNL001,"Lenti-X 293T cells; 10 nM CNL001, second column",64.111%
same,YFP fluorescence quenching using TC-5619/Bradanicline,Lenti-X 293T cells; 10 nM brd,4.459%
same,YFP fluorescence quenching using TC-5619/Bradanicline,Lenti-X 293T cells; 30 nM brd,69.782%
same,YFP fluorescence quenching using Varenicline,"Lenti-X 293T cells; 30 nM var, first column",42.214
same,YFP fluorescence quenching using Varenicline,"Lenti-X 293T cells; 30 nM var, second column",43.015
same,YFP fluorescence quenching using CNL001,"Lenti-X 293T cells; 50 nM CNL001, first column",71.409%
same,YFP fluorescence quenching using CNL001,"Lenti-X 293T cells; 50 nM CNL001, second column",70.989%
same,YFP fluorescence quenching using ABT-126,Lenti-X 293T cells; 50 nM abt,−19.54%
same,YFP fluorescence quenching using CNL001,"Lenti-X 293T cells; 100 nM CNL001, first column",74.148%
same,YFP fluorescence quenching using CNL001,"Lenti-X 293T cells; 100 nM CNL001, second column",71.722%
same,YFP fluorescence quenching using ABT-126,Lenti-X 293T cells; 100 nM abt,−18.28%
same,YFP fluorescence quenching using TC-5619/Bradanicline,Lenti-X 293T cells; 100 nM brd,77.633%
same,YFP fluorescence quenching using ABT-126,Lenti-X 293T cells; 300 nM abt,−16.87%
same,YFP fluorescence quenching using TC-5619/Bradanicline,Lenti-X 293T cells; 300 nM brd,72.933%
same,YFP fluorescence quenching using Varenicline,"Lenti-X 293T cells; 300 nM var, first column",47.059
same,YFP fluorescence quenching using Varenicline,"Lenti-X 293T cells; 300 nM var, second column",52.768
same,YFP fluorescence quenching using Varenicline,"Lenti-X 293T cells; 500 nM var, first column",59.542
same,YFP fluorescence quenching using Varenicline,"Lenti-X 293T cells; 500 nM var, second column",62.641
same,YFP fluorescence quenching using CNL001,"Lenti-X 293T cells; 1 uM CNL001, first column",71.378%
same,YFP fluorescence quenching using CNL001,"Lenti-X 293T cells; 1 uM CNL001, second column",71.411%
same,YFP fluorescence quenching using ABT-126,Lenti-X 293T cells; 1 uM abt,−11.77%
same,YFP fluorescence quenching using Varenicline,"Lenti-X 293T cells; 1 uM var, first column",71.449
same,YFP fluorescence quenching using Varenicline,"Lenti-X 293T cells; 1 uM var, second column",69.145
same,"percent quench of YFP fluorescence, 30 nM TC-6683",Lenti-X 293T cells,−22.996%
same,"percent quench of YFP fluorescence, 300 nM TC-6683",Lenti-X 293T cells,−27.055%
same,"percent quench of YFP fluorescence, 3 uM TC-6683",Lenti-X 293T cells,−18.611%
same,"percent quench of YFP fluorescence, 30 uM TC-6683",Lenti-X 293T cells,−13.879%
same,"percent quench of YFP fluorescence, 100 uM TC-6683",Lenti-X 293T cells,−21.521%
same,"percent quench of YFP fluorescence, 10 uM ach",Lenti-X 293T cells; acetylcholine 10 uM,−3.98%
same,"percent quench of YFP fluorescence, 100 uM ach",Lenti-X 293T cells,−10.34%
same,"percent quench of YFP fluorescence, 300 uM ach",Lenti-X 293T cells,−10.25%
same,"percent quench of YFP fluorescence, 500 uM ach",Lenti-X 293T cells,−11.46%
same,"percent quench of YFP fluorescence, 1 mM ach",Lenti-X 293T cells,1.77%
same,"percent quench of YFP fluorescence, 3 mM ach",Lenti-X 293T cells,36.81%
same,"percent quench of YFP fluorescence, 10 mM ach",Lenti-X 293T cells,74.02%
"CODA1055: engineered chimeric LGIC receptor, R101W, Y115E, Y210W in SEQ ID NO: 33 (protein, synthetic sequence of chimeric LGIC) MRCSPGGVWLALAASLLHVSLQGEFQRKLYKELVKNYNPLERPVANDSQPLTVYFSLSLLQIMDVDEKNQVLTTNIWLQMSWTDHYLQWNVSEYPGVKTVWFPDGQIWKPDILLENSADERFDATFHTNVLVNSSGHCQYLPPGIFKSSCPMDLKNFPMDVQTCKLKFGSWSYGGWSLDLQMQEADISGYIPNGEWDLVGIPGKRSERFWECCKEPYPDVTFTVTMRRRMGYYLIQMYIPSLLIVILSWISFWINMDAAPARVGLGITTVLTMTTQSSGSRASLPKVSYVKAIDIWMAVCLLFVFSALLEYAAVNFVSRQHKELLRFRRKRRHHKSPMLNLFQEDEAGEGRFNFSAYGMGPACLQAKDGISVKGANNSNTTNPPPAPSKSPEEMRKLFIQRAKKIDKISRIGFPMAFLIFNMFYWIIYKIVRREDVHNQ","Rheobase Shift; Rat DRG Neurons, +TC-5619 @ EC90",rat DRG neurons,562 ± 35 pA
same,"Rheobase Shift; Rat DRG Neurons, Baseline",rat DRG neurons,83 ± 7 pA
same,YFP fluorescence quenching using CNL001,"Lenti-X 293T cells; 1 nM CNL001, first column",−12.889%
same,YFP fluorescence quenching using CNL001,"Lenti-X 293T cells; 1 nM CNL001, second column",−13.295%
same,YFP fluorescence quenching using TC-5619/Bradanicline,Lenti-X 293T cells; 1 nM brd,−8.113%
same,YFP fluorescence quenching using TC-5619/Bradanicline,Lenti-X 293T cells; 3 nM brd,−11.136%
same,YFP fluorescence quenching using Varenicline,"Lenti-X 293T cells; 3 nM var, first column",0.468
same,YFP fluorescence quenching using Varenicline,"Lenti-X 293T cells; 3 nM var, second column",−10.015
same,YFP fluorescence quenching using CNL001,"Lenti-X 293T cells; 10 nM CNL001, first column",−10.401%
same,YFP fluorescence quenching using CNL001,"Lenti-X 293T cells; 10 nM CNL001, second column",−7.981%
same,YFP fluorescence quenching using TC-5619/Bradanicline,Lenti-X 293T cells; 10 nM brd,38.755%
same,YFP fluorescence quenching using TC-5619/Bradanicline,Lenti-X 293T cells; 30 nM brd,39.111%
same,YFP fluorescence quenching using Varenicline,"Lenti-X 293T cells; 30 nM var, first column",−15.532
same,YFP fluorescence quenching using Varenicline,"Lenti-X 293T cells; 30 nM var, second column",−14.462
same,YFP fluorescence quenching using CNL001,"Lenti-X 293T cells; 50 nM CNL001, first column",−1.972%
same,YFP fluorescence quenching using CNL001,"Lenti-X 293T cells; 50 nM CNL001, second column",−1.661%
same,YFP fluorescence quenching using ABT-126,Lenti-X 293T cells; 50 nM abt,−21.36%
same,YFP fluorescence quenching using CNL001,"Lenti-X 293T cells; 100 nM CNL001, first column",0.277%
same,YFP fluorescence quenching using CNL001,"Lenti-X 293T cells; 100 nM CNL001, second column",4.325%
same,YFP fluorescence quenching using ABT-126,Lenti-X 293T cells; 100 nM abt,−22.28%
same,YFP fluorescence quenching using TC-5619/Bradanicline,Lenti-X 293T cells; 100 nM brd,61.378%
same,YFP fluorescence quenching using ABT-126,Lenti-X 293T cells; 300 nM abt,−14.63%
same,YFP fluorescence quenching using TC-5619/Bradanicline,Lenti-X 293T cells; 300 nM brd,52.398%
same,YFP fluorescence quenching using Varenicline,"Lenti-X 293T cells; 300 nM var, first column",−17.027
same,YFP fluorescence quenching using Varenicline,"Lenti-X 293T cells; 300 nM var, second column",−15.59
same,YFP fluorescence quenching using Varenicline,"Lenti-X 293T cells; 500 nM var, first column",−13.343
same,YFP fluorescence quenching using Varenicline,"Lenti-X 293T cells; 500 nM var, second column",−10.702
same,YFP fluorescence quenching using CNL001,"Lenti-X 293T cells; 1 uM CNL001, first column",2.88%
same,YFP fluorescence quenching using CNL001,"Lenti-X 293T cells; 1 uM CNL001, second column",3.259%
same,YFP fluorescence quenching using ABT-126,Lenti-X 293T cells; 1 uM abt,−7.34%
same,YFP fluorescence quenching using Varenicline,"Lenti-X 293T cells; 1 uM var, first column",−6.604
same,YFP fluorescence quenching using Varenicline,"Lenti-X 293T cells; 1 uM var, second column",−7.612
same,"percent quench of YFP fluorescence, 30 nM TC-6683",Lenti-X 293T cells,−30.056%
same,"percent quench of YFP fluorescence, 300 nM TC-6683",Lenti-X 293T cells,−30.801%
same,"percent quench of YFP fluorescence, 3 uM TC-6683",Lenti-X 293T cells,−25.558%
same,"percent quench of YFP fluorescence, 30 uM TC-6683",Lenti-X 293T cells,−18.295%
same,"percent quench of YFP fluorescence, 100 uM TC-6683",Lenti-X 293T cells,−17.554%
same,"percent quench of YFP fluorescence, 100 uM ach",Lenti-X 293T cells,−15.63%
same,"percent quench of YFP fluorescence, 300 uM ach",Lenti-X 293T cells,−12.05%
same,"percent quench of YFP fluorescence, 500 uM ach",Lenti-X 293T cells,−12.87%
same,"percent quench of YFP fluorescence, 1 mM ach",Lenti-X 293T cells,−11.55%
same,"percent quench of YFP fluorescence, 3 mM ach",Lenti-X 293T cells,12.68%
same,"percent quench of YFP fluorescence, 10 mM ach",Lenti-X 293T cells,37.58%
